Assay results from patent publication US20190177408A1 (SUZHOU CONNECT BIOPHARMACEUTICALS, published 2019).
Numbering of substitutions follows the chain as printed.

T1: human soluble IL-4Rα (sIL-4Rα) (human, UniProt P24394 26-232)
T1 construct: Bought reagent (PEPRO TECH, Catalog Number 200-04R); also called shIL-4Rα; soluble hIL-4 Rα
T1 sequence: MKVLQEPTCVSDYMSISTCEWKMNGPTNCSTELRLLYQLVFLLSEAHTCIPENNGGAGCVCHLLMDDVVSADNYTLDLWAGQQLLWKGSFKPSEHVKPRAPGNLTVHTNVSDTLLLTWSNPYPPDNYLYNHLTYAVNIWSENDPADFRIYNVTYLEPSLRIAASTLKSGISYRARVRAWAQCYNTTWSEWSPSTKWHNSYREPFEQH

B1: L1000H1007 (antibody, V domains shown)
VH: EVQLVQSGGGLVHPGGSLRLSCAGSGFTFSRNAMFWVRQAPGKGLEWVSGIGTGGATSYADSVKGRFTISRDNAKNSLYLQMNSLRAEDMAVYYCARGRYYFDYWGQGTLVTVSS
VL: not shown
notes: human kappa
B2: L1000H1012 (antibody, V domains shown)
VH: B1 VH with M90T
VL: not shown
notes: human kappa
B3: L1000H1030 (antibody, V domains shown)
VH: B1 VH with Q6E, H13Q, G24A, S58N, M90T, D103P, Y104W
VL: not shown
notes: human kappa
B4: L1012H1000 (antibody, V domains shown)
VH: B1 VH with S58N
VL: not shown
notes: human kappa
B5: L1012H1020 (antibody, V domains shown)
VH: B1 VH with D103P, Y104W
VL: not shown
notes: human kappa
B6: L1000H1010 (antibody, V domains shown)
VH: B1 VH with H13Q, S58N
VL: not shown
notes: human kappa
B7: L1000H1013 (antibody, V domains shown)
VH: B1 VH with Q6E, G24A, S58N
VL: not shown
notes: human kappa
B8: L1020H1016 (antibody, V domains shown)
VH: B1 VH with S58N, D103P, Y104W
VL: EIVLTQSPGTLSLSPGERATLSCRASQSVSSSYLAWYQQKPGQAPRLLIYGASSRATGIPDRFSGSGSGTDFTLTISRLEPEDFAVYYCQQYDHSAGWTFGQGTKVEIK
notes: human kappa
B9: L1000H1035 (antibody, V domains shown)
VH: B1 VH with F35H, S58N
VL: not shown
notes: human kappa
B10: L1011H1000 (antibody, V domains shown)
VH: B1 VH with S58N
VL: B8 VL with S31N, Y50F, T57P, D93G, H94S, A96P, G97P
notes: human kappa
B11: L1015H1000 (antibody, V domains shown)
VH: B1 VH with S58N
VL: B8 VL with Y50F, T57P, A96P, G97P
notes: human kappa
B12: L1020H1031 (antibody, V domains shown)
VH: B1 VH with Q6E, H13Q, G24A, M90T
VL: B8 VL
notes: human kappa
B13: L1008H1000 (antibody, V domains shown)
VH: B1 VH with S58N
VL: not shown
notes: human kappa
B14: L1000H1031 (antibody, V domains shown)
VH: B1 VH with Q6E, H13Q, G24A, M90T
VL: not shown
notes: human kappa
B15: L1000H1020 (antibody, V domains shown)
VH: B1 VH with D103P, Y104W
VL: not shown
notes: human kappa
B16: L1020H1020 (antibody, V domains shown)
VH: B1 VH with D103P, Y104W
VL: B8 VL
notes: human kappa
B17: L1017H1000 (antibody, V domains shown)
VH: B1 VH with S58N
VL: not shown
notes: human kappa
B18: L1020H1027 (antibody, V domains shown)
VH: B1 VH with Q6E, G24A, M90T, D103P, Y104W
VL: B8 VL
notes: human kappa
B19: L1000H1025 (antibody, V domains shown)
VH: B1 VH with G24A, M90T, D103P, Y104W
VL: not shown
notes: human kappa
B20: L1000H1024 (antibody, V domains shown)
VH: B1 VH with H13Q, M90T, D103P, Y104W
VL: not shown
notes: human kappa
B21: L1013H1000 (antibody, V domains shown)
VH: B1 VH with S58N
VL: B8 VL with S31N, Y50F, A96P, G97P
notes: human kappa
B22: L1000H1021 (antibody, V domains shown)
VH: B1 VH with S58N, M90T, D103P, Y104W
VL: not shown
notes: human kappa
B23: L1020H1007 (antibody, V domains shown)
VH: B1 VH
VL: B8 VL
notes: human kappa
B24: L1012H1007 (antibody, V domains shown)
VH: B1 VH
VL: not shown
notes: human kappa
B25: L1000H1027 (antibody, V domains shown)
VH: B1 VH with Q6E, G24A, M90T, D103P, Y104W
VL: not shown
notes: human kappa
B26: L1010H1000 (antibody, V domains shown)
VH: B1 VH with S58N
VL: not shown
notes: human kappa
B27: L1012H1031 (antibody, V domains shown)
VH: B1 VH with Q6E, H13Q, G24A, M90T
VL: not shown
notes: human kappa
B28: L1000H1028 (antibody, V domains shown)
VH: B1 VH with H13Q, G24A, M90T, D103P, Y104W
VL: not shown
notes: human kappa
B29: L1000H1029 (antibody, V domains shown)
VH: B1 VH with Q6E, H13Q, G24A, D103P, Y104W
VL: not shown
notes: human kappa
B30: L1000H1036 (antibody, V domains shown)
VH: B1 VH with K43E, S58N
VL: not shown
notes: human kappa
B31: L1000H1022 (antibody, V domains shown)
VH: B1 VH with M90T, D103P, Y104W
VL: not shown
notes: human kappa
B32: L1000H1026 (antibody, V domains shown)
VH: B1 VH with Q6E, H13Q, M90T, D103P, Y104W
VL: not shown
notes: human kappa
B33: L1012H1029 (antibody, V domains shown)
VH: B1 VH with Q6E, H13Q, G24A, D103P, Y104W
VL: not shown
notes: human kappa
B34: L1016H1000 (antibody, V domains shown)
VH: B1 VH with S58N
VL: B8 VL with Y50F, A96P, G97P
notes: human kappa
B35: L1000H1008 (antibody, V domains shown)
VH: B1 VH with S58N, M90T
VL: not shown
notes: human kappa
B36: L1000H1037 (antibody, V domains shown)
VH: B1 VH with S58N, N73E
VL: not shown
notes: human kappa
B37: L1007H1000 (antibody, V domains shown)
VH: B1 VH with S58N
VL: not shown
notes: human kappa
B38: L1020H1000 (antibody, V domains shown)
VH: B1 VH with S58N
VL: B8 VL
notes: human kappa

target: T1, human soluble IL-4Rα (sIL-4Rα); assay: ELISA, coated sIL-4Rα, culture supernatant
Protocol: 100 μl of 100 μg/ml sIL-4Rα solution was added to 9.90 ml of PBS, mixed up and down, and then an antigen coating buffer of 1.0 μg/ml was obtained. The prepared antigen coating buffer was added to a 96-well ELISA plate (Corning) with a volume of 100 μl per well. The 96-well ELISA plate was incubated overnight in a refrigerator at 4° C. On the next day; the solution therein was discarded; and PBS containing 2% BSA was added to the 96-well ELISA plate row by row with a volume of 300 μl per well. The 96-well ELISA plate was incubated for 2 hours in a refrigerator at 4° C., Then the PBS containing 2% BSA was discarded and the plate was washed 3 times with PBST. Diluted antibodies to be tested were sequentially added to the corresponding wells, while the normal cell culture supernatants, as negative control samples, were added too. Three duplicate wells were made for each sample with a volume of 100 μl per well. The ELISA plate was wrapped with preservative film (or covered) and incubated for 1 h at […] in a constant temperature incubator. Subsequently, the 96-well ELISA plate was taken out, and the solution therein was discarded. After washing with PBST for 3 times, TMB solution (Solarbio, Catalog Number: PR1200) was added to the 96-well ELISA plate row by row with a volume of 100 μl per well. The 96-well ELISA plate was placed at room temperature for 5 minutes, and 2 M H2SO4 solution was added in immediately to terminate the reaction. The 96-well ELISA plate was placed in flexstation 3 (Molecular Devices), the values of OD450 were read, and the data were collected, calculated and analyzed. Results were expressed relative to the affinity of control antibody 1.

Row | OD 450/OD450Control antibody 1 | Binder
1 | 0.37 | B1
2 | 0.18 | B2
3 | 0.2 | B3
4 | 1.22 | B4
5 | 0.11 | B5
6 | 0.11 | B6
7 | 0.38 | B7
8 | 0.8 | B8
9 | 0.22 | B9
10 | 0.9 | B10
11 | 0.67 | B11
12 | 1.12 | B12
13 | 0.9 | B13
14 | 1.14 | B14
15 | 0.23 | B15
16 | 0.26 | B16
17 | 0.49 | B17
18 | 0.4 | B18
19 | 0.21 | B19

Row | OD 450/OD450Control antibody 1 | Binder
20 | 0.26 | B20
21 | 0.24 | B21
22 | 0.35 | B22
23 | 0.4 | B23
24 | 0.4 | B24
25 | 0.44 | B25
26 | 1 | B26
27 | 0.16 | B27
28 | 0.33 | B28
29 | 0.8 | B29
30 | 0.1 | B30
31 | 0.18 | B31
32 | 0.11 | B32
33 | 0.11 | B33
34 | 0.27 | B34
35 | 0.21 | B35
36 | -0.01 | B36
37 | 0.8 | B37
38 | 2.27 | B38
